According to PMC11797554, “Chemical genetics reveals cross-regulation of plant developmental signaling by the immune peptide-receptor pathway” (Science Advances, 2024):

What was measured:
[1] = target: SCRM KiDoK peptide (Arabidopsis); assay: BLI; as a1 but analyte MPK6 preincubated with the small molecule kC9 (MPK6:kC9 1:1.5), 150-4.68 nM; biotinylated SCRM KiDoK peptide on streptavidin probes; 25°C; 1x PBS, 2% DMSO, 0.02 Tween 20, 0.1% BSA
[2] = target: SCRM KiDoK peptide (Arabidopsis); assay: BLI; biotinylated SCRM KiDoK peptide (500 nM) loaded on streptavidin probes; MPK6 as analyte at 150-4.68 nM; without kC9; Octet Red96, 25°C; 1x PBS, 2% DMSO, 0.02 Tween 20, 0.1% BSA; 1:1 model, Kd from kobs with steady-state analysis
[3] = target: MPK6ΔNt (29 to 305) (Arabidopsis) (UniProt Q39026); assay: ITC; SCRM KiDoK peptide to MPK6ΔNt (29 to 305) preincubated with the small molecule kC9; 25°C, Malvern PEAQ-ITC; PBS pH 7.4 with 2% DMSO
[4] = target: MPK6ΔNt (29 to 305) (Arabidopsis) (UniProt Q39026); assay: ITC; SCRM KiDoK peptide to MPK6ΔNt (29 to 305), without kC9; 25°C, Malvern PEAQ-ITC; PBS pH 7.4 with 2% DMSO

“MPK6ΔNt (29 to 305) (from UniProt Q39026 29-305) (domain or fragment)” gave a Kd [1] of 0.857 µM and a Kd [2] of 0.0401 µM.

SCRM KiDoK peptide was tested, and the Kd [3] was 1.4 µM and the Kd [4] was 0.0434 µM.
